The record followed here is paper PMC4114688.

Common to all, as to test: EMSA
On the technique in general: Mobility shift assays separate free from complexed probe on a gel.

Data set [1] concerns the target T1, RBPMS isoform A (Homo sapiens, UniProt Q93062 1-196).
Data set [2] concerns the target T2, RBPMS2 (UniProt Q6ZRY4 1-209).
Data set [3] deals with T1, RBPMS isoform A. The source holds these as a separate data set.
The target in data set [4] is T2, RBPMS2. The source holds these as a separate data set.
The target in data set [5] is RBPMS 1-100 (Homo sapiens, UniProt Q93062 1-100).
Data set [6] has as its target T1, RBPMS isoform A. The source holds these as a separate data set.
The target in data set [7] is RBPMS 1-144 (Homo sapiens, UniProt Q93062 1-144).

Like-named read-outs stand apart in the source and are kept apart here.

T2 sequence (Q6ZRY4 whole entry, canonical isoform): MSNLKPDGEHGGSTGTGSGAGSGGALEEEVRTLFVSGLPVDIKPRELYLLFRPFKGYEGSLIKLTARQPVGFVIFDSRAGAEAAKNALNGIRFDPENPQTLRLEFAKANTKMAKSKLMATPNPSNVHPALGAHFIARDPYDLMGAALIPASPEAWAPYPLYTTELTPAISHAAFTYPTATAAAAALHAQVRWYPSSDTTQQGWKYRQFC

As for AAAAAAAAAAAAAAAAAA (ssRNA) [A18], the binding result in data set [1] is listed as “no binding”.

As to AGAGAGAGAGAGAGAGAG (ssRNA) [(AG)9], in data set [1], the binding result is listed as “no binding”. As to CUCUCUCUCUCUCUCUCU (ssRNA) [(CU)9], the binding result in data set [2] and in data set [1] was “no binding” throughout. ACACACACACACAC (ssRNA) [(AC)7]: the binding result in data set [3] is “binds”. With UACUCACUCACUCUCCACGAG (ssRNA) [UBE2V1 or SRM 21-nt wt (a)], the binding result in data set [1] is “binds”. In the case of AGGCACUUUCAACUUCACUCC (ssRNA) [ETF1 21-nt wt], the binding result in data set [1] and in data set [4] was “binds” each time. Turning to GCCGCCGCCGCCGCCGCC (ssRNA) [(GCC)6], the binding result in data set [1] is “no binding”. Same read-out and setting: the result for CCCUCACUCACCAAACACGUG (ssRNA) [UBE2V1 or SRM 21-nt wt (b)] reads “binds”; that for UUUUUUUUUUUUUUUUUU (ssRNA) [U18], “no binding”.

Turning to CACCACCACCACCACCAC (ssRNA) [(CAC)6], the binding result in data set [2] and in data set [1] was “binds” each time. CAUCAUCAUCAUCAUCAU (ssRNA) [(CAU)6]: the binding result in data set [2] and in data set [1] was “no binding” in each case. With GGCGGCGGCGGCGGCGGC (ssRNA) [(GGC)6], the binding result in data set [1] is listed as “no binding”. Consider ACACACACACACACACAC (ssRNA) [(AC)9], for which the binding result in data set [2] is listed as “binds”; in data set [5], “no binding”; in data set [6] it was “binds”; in data set [7] it was “binds”.
